Molecular target: human MUC16 (mucin 16) (human)
Assay: MSD ECL cell binding, RLU ratio OVCAR-3 vs SK-OV-3, […] Ab; NS = ratio <2.5-fold

Substance: hIgG1 Isotype Control Antibody
- Ratio anti-MUC16 Binding OVCAR-3/SK-OV-3: < 2.5

Substance: mIgG2a Isotype Control Antibody
- Ratio anti-MUC16 Binding OVCAR-3/SK-OV-3: < 2.5

Substance: mIgG1 Isotype Control Antibody
- Ratio anti-MUC16 Binding OVCAR-3/SK-OV-3: < 2.5
